{
  "source": "paper PMC9869178",
  "molecular_target": "recombinant RIIα subunit of PKA, fluorescein 5-maleimide-labelled (UniProt P13861)",
  "sequence (P13861 2-404)": "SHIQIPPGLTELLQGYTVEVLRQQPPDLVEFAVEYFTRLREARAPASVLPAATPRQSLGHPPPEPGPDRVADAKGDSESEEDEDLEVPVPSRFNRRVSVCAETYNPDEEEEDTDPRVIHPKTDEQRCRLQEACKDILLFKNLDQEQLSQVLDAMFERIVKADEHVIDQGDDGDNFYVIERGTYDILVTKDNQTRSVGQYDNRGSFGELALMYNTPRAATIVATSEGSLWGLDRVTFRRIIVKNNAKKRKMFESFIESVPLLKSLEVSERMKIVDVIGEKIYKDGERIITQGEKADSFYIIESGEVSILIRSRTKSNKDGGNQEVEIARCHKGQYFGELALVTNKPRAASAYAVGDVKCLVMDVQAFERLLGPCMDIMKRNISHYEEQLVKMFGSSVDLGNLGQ",
  "assay": "other fluorescence titration",
  "data": [
    {"substance": "PI3Kγ mimetic peptide (PI3Kγ MP) (from UniProt P48736 126-150)", "values": [
      {"measurement": "Kd", "result": 7.5, "unit": "µM"}
    ]}
  ]
}
